Reference: patent publication US6649364

Legend:
[1] = target: DNase I (Sigma, St. Louis, Mo.); test: cell-based or functional assay
[2] = target: α-actin purified from rabbit skeletal muscle, globular (G-actin) form (UniProt P68135)

| DNase I digestion of plasmid DNA (agarose gel): level of inhibition against diluted intact actin [1] | DNase I digestion of plasmid DNA (agarose gel): reduction in DNase I inhibition [1] | Substance | DNase I digestion of plasmid DNA (agarose gel) [2] |
| --- | --- | --- | --- |
| 5 fold | 80% | actin cleaved for 90 minutes by ICE |  |
|  |  | DNase I (Sigma, St. Louis, Mo.) | preincubation of DNase I with intact actin (1.5 µg) for 5 minutes markedly reduced its ability to digest the plasmid |
